Results taken from publication PMC7729563, “Phospho-Mutant Activity Assays Provide Evidence for the Negative Regulation of Transcriptional Regulator PRE1 by Phosphorylation” (International Journal of Molecular Sciences, 2020).
Where a chain is given by its changes, count along the chain named.

Assays:
[1] = molecular target: T1, GST-BIN2 (BR-… 2, GSK3-like kinase) (Arabidopsis thaliana, UniProt Q39011 1-380); test: far-Western, overlay or dot blot; overlay assay in vitro (Figure S5A); format not told; settings: both partners purified
T1 construct: GST-BIN2 is the only recombinant wild-type BIN2 described (methods 4.11); also called brassinosteroid-insensitive 2; source: E. coli, purified
T1 sequence (looked up): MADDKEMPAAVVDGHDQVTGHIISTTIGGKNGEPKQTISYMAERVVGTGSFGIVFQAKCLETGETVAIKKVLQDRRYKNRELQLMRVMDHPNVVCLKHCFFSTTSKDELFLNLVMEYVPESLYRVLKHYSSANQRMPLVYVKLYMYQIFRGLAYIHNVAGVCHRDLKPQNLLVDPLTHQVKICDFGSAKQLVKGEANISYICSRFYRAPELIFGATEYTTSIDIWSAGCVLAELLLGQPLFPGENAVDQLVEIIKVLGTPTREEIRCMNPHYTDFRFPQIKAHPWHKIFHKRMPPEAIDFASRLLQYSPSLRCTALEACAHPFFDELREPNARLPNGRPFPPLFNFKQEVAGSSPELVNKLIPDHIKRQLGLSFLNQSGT

GST-IBH1 = molecular target: T2, GST-IBH1 (Arabidopsis thaliana, UniProt Q9SKX1 1-156); test: pull-down; 1 μg GST-IBH1 on glutathione beads with 1 μg MBP fusion; 20 mM Tris-HCl pH 7.5, 100 mM NaCl, 1 mM EDTA; washes with 300 mM NaCl, 0.5% Triton X-100; anti-MBP immunoblot; settings: both partners purified
T2 construct: also called glutathione S-transferase (GST)-IBH1; source: bacteria, purified on glutathione beads; not shown: GST, N-terminal, kept
T2 sequence (looked up): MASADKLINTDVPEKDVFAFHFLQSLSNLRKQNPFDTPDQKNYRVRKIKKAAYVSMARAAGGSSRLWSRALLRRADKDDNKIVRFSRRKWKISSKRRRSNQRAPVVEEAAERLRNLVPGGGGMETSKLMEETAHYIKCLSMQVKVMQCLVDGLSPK

B1: MBP-PRE1 (natural protein, Arabidopsis thaliana, UniProt Q9FLE9 1-92, looked up)
chain: MSNRRSRQSSSAPRISDNQMIDLVSKLRQILPEIGQRRRSDKASASKVLQETCNYIRNLNREVDNLSERLSQLLESVDEDSPEAAVIRSLLM
notes: MBP-PRE1 is the only recombinant PRE1 described; source: E. coli, purified on amylose resin beads; not shown: MBP, N-terminal, kept
- binding result [1]: binds
- binding result (GST-IBH1): binds

B2: MBP-PRE1^S67A (natural protein, Arabidopsis thaliana, UniProt Q9FLE9 1-92, looked up)
chain: B1 chain with S67A
notes: source: E. coli, purified on amylose resin beads; not shown: MBP, N-terminal, kept
- binding result (GST-IBH1): binds
